Target: HLA-DR (human)
Experiment: flow cytometry on Raji cells, APC mouse anti-human IgG (FIG. 21B)

B1: huLym-1-B antibody (antibody, human IgG1, V domains shown)
VH: EVQLVESGGGLVQPGRSLRLTCTASGFSLTSYGVHWVRQPPGKGLEWLAVIWSDGSTTYNSALKSRLTISKDNSKSQVYLQMNSLRAEDTAVYYCARHYGSTLAFASWGQGTLVTVSS
VL: DIQMTQSPSSLSASVGDRVTITCRASVNIYSYLAWYQQKPGKAPNLLIYNAKILAEGVPSRFSGSGSGTDFTLTISSLQPEDFASYYCQHHYGTFTFGQGTKVEIK
  fold higher ED50 than chLym-1: 2 fold
